For one assay, the target named is T1, PD-1-mFc (human, UniProt Q15116 25-170, limits assumed).
T1 construct: also called human PD-1-mFc
The experiment in a line: ELISA, PD-1-mFc coated. On the procedure: A microplate was coated with PD-1-mFc at 0.5 μg/mL and incubated at 4° C. overnight. Then the microplate coated with antigens was washed once with PBST, and then blocked with a PBS solution containing 1% BSA as blocking solution at 37° C. for 2 h. After blocking, the microplate was washed 3 times with PBST. The microplate containing the test antibodies was incubated at 37° C. for 30 min, and then washed 3 times with PBST. […] After incubation, the plate was washed 4 times with PBST, TMB (Neogen, 308177) was added in the dark for chromogenesis for 5 min, and then a stop solution was added to terminate chromogenic reaction. The microplate was put into a microplate reader immediately, and the OD value of each well in the microplate was read at 450 nm. The data were analyzed and processed by SoftMax Pro 6.2.1,
(In general: In an ELISA, binding on a coated surface is turned into a signal by an enzyme label.)

The target of assay [1] is T2, PD-1 on 293T-PD1 cell surface (human, UniProt Q15116 25-288).
T2 construct: whole, on cells
The experiment in a line: flow cytometry, 293T-PD1 cells. On the procedure:
(§1) 500 μL of PBSA was added, and the mixture was centrifuged at 5600 rpm for 5 min to remove the supernatant. […] The system was mixed gently and uniformly, and then was incubated on ice for 1 h. Then 500 μL of PBSA was added, and the mixture was centrifuged at 5600 rpm for 5 min to remove the supernatant. […] 500 μL of PBSA was added, and the mixture was centrifuged at 5600 rpm for 5 min to remove the supernatant. At last, 200 μL of PBSA was added to resuspend cell precipitates, and the mixture was transferred to a flow tube for FACSCalibur detection.
A general note: A flow cytometer gives signals particle by particle.

Assay [2] addresses T3, CD73 on cell membrane surface (MDA-MB-231, U87-MG) (human, UniProt P21589 27-549).
T3 construct: whole, on cells; also called NT5E
T3 sequence (looked up): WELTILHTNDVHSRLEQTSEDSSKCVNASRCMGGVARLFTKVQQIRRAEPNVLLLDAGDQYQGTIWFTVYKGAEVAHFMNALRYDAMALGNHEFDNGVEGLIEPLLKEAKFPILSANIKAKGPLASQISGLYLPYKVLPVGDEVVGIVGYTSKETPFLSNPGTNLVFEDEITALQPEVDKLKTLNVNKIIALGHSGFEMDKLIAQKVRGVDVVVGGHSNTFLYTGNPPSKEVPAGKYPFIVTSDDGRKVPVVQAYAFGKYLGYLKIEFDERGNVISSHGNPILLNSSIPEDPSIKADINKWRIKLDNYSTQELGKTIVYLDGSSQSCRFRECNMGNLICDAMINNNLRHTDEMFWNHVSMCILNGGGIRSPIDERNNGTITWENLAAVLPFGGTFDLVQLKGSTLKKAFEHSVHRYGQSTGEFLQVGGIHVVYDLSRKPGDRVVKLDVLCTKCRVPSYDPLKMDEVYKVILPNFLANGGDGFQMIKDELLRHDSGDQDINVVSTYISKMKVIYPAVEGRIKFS
As to the kind of experiment: flow cytometry, MDA-MB-231 cells. On the procedure:
(§2) MDA-MB-231 cells in logarithmic phase were digested with conventional trypsin and transferred to a 1.5 mL centrifuge tube at 3×10⁵ cells/tube. 500 μL of PBSA was added, and the mixture was centrifuged at 5600 rpm for 5 min to remove the supernatant. […] The system was mixed gently and uniformly, and then was incubated on ice for 1 h. Then 500 μL of PBSA was added, and the mixture was centrifuged at 5600 rpm for 5 min to remove the supernatant. […] 500 μL of PBSA was added, and the mixture was centrifuged at 5600 rpm for 5 min to remove the supernatant. At last, 200 μL of PBSA was added to resuspend cell precipitates, and the mixture was transferred to a flow tube for FACSCalibur detection.

Assay [3] addresses T2, PD-1 on 293T-PD1 cell surface. As to the kind of experiment: flow cytometry, 293T-PD1 cells; antibody 0.05 nM. On the procedure:
as §1

For assay [4] the target is unchanged. As to the kind of experiment: flow cytometry, 293T-PD1 cells; antibody 0.14 nM. As to the method:
as §1

Assay [5] shares this target. As to the kind of experiment: flow cytometry, 293T-PD1 cells; antibody 1.23 nM. As to the method:
as §1

The target is the same in assay [6]. As to the kind of experiment: flow cytometry, 293T-PD1 cells; antibody 33.33 nM. On the procedure:
as §1

Assay [7] addresses T3, CD73 on cell membrane surface …. As to the kind of experiment: flow cytometry, MDA-MB-231 cells; antibody 0.05 nM. As to the method: as §2
Assay [8] shares this target. As to the kind of experiment: flow cytometry, MDA-MB-231 cells; antibody 0.14 nM. On the procedure: as §2
Assay [9] has the same target. The experiment in a line: flow cytometry, MDA-MB-231 cells; antibody 0.41 nM. As to the method: as §2
The target is the same in assay [10]. As to the kind of experiment: flow cytometry, MDA-MB-231 cells; antibody 33.33 nM. As to the method:
as §2

Another assay has as its target human PD-1-mFc-biotin (human, UniProt Q15116 25-170, limits assumed, biotin label, site not stated). As to the kind of experiment: competitive ELISA, blocking of PD-1-mFc-biotin binding to coated PD-L1-mFc. On the procedure: After incubation, the microplate was blocked with a PBS solution containing 1% BSA at 37° C. for 2 h. After blocking, the plate was washed three times and dried. The antibody was serially diluted to 7 concentrations in a gradient ratio of 1:3 on a dilution plate with 10 μg/mL as the starting concentration, and a blank control was set. […] Then the mixture after reaction was added to the coated microplate, and the microplate was incubated for at 37° C. for 30 min. After incubation, the plate was washed three times with PBST and dried. SA-HRP (KPL, 14-30-00) working solution was added, and the plate was incubated at 37° C. for 30 min. After incubation, the plate was washed four times and patted dry. Then TMB (Neogen, 308177) was added in the dark for chromogenesis for 5 min, and a stop solution was added to terminate chromogenic reaction. Then the microplate was put into a microplate reader immediately, and the OD value of each well in the microplate was read at 450 nm. The data were analyzed and processed by SoftMax Pro 6.2.1.

As a reminder, the EC50 is the concentration at which the effect is half-maximal. Higher therefore signals lower potency in that assay.

T2 sequence (Q15116 25-288): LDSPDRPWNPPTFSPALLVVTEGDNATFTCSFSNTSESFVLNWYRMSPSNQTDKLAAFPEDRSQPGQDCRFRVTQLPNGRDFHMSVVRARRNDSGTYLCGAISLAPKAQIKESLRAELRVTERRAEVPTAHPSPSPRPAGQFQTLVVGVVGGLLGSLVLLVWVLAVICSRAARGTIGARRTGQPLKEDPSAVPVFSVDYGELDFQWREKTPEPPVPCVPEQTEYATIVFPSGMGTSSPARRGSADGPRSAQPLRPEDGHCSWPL
human PD-1-mFc-biotin, sequence (Q15116 other isoform, or with tags, fused parts or gaps limits assumed): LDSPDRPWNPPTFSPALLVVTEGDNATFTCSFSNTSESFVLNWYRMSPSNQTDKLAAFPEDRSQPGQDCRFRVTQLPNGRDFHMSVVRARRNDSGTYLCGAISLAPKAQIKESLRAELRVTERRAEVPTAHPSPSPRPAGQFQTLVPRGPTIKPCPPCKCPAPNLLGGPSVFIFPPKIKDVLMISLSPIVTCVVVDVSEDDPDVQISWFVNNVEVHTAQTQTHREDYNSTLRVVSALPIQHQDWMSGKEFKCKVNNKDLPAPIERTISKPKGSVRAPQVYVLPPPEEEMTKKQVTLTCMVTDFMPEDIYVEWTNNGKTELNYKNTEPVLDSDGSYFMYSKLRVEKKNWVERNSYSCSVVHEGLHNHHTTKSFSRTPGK
T1 sequence (Q15116 other isoform, or with tags, fused parts or gaps limits assumed): as above

B1: P1D7V01 (bispecific antibody, human IgG1, kappa)
heavy: not shown
light: DIQMTQSPSSMSASVGDRVTFTCRASQDINTYLSWFQQKPGKSPKTLIYRANRLVSGVPSRFSGSGSGQDYTLTISSLQPEDMATYYCLQYDEFPLTFGAGTKLELKRTVAAPSVFIFPPSDEQLKSGTASVVCLLNNFYPREAKVQWKVDNALQSGNSQESVTEQDSKDSTYSLSSTLTLSKADYEKHKVYACEVTHQGLSSPVTKSFNRGEC
notes: Morrison form IgG-scFv
As for B1, the EC50 with PD-1-mFc is 0.078 nM; in assay [1] it was 1 nM; in assay [2], 1.38 nM; with human PD-1-mFc-biotin, 1.11 nM. Besides, the FACS signal was 26.6 in assay [3]; 58.6 in assay [4]; 307 in assay [5]; 479 in assay [6]; 23.4 in assay [7]; 38 in assay [8]. Further, the FACS signal in assay [9] turned out to be 76.8; in assay [10] it was 526.

B2: P1D7V03 (bispecific antibody, human IgG1, kappa)
heavy: not shown
light: B1 light
notes: Morrison form IgG-scFv
In the case of B2, the EC50 was 0.075 nM in the assay with PD-1-mFc, 1.38 nM in [1], 2.01 nM in [2] and 1.15 nM with human PD-1-mFc-biotin. Further, the FACS signal in assay [3] came to 24.1; in [4], 49.2; in [5] it was 289; in [6] it was 808; in assay [7], 17; in assay [8], 44. Besides, the figures for the FACS signal in assay [9] and in assay [10] were 106 and 576, respectively.

The values above are taken from patent US20230151111A1 (AKESO BIOPHARMA, published 2023).
